We go through one substance from publication PMC1914068.

This test concerns the target LexA-TAP-Vpr (yeast two-hybrid bait) (HIV-1) (UniProt P05928). Description: two-hybrid; LexA baits (pEG202) and B42 preys (pJG4-5) in S. cerevisiae EGY48; β-galactosidase activity by the o-nitrophenyl-β-D-galactopyranoside method.

Substance “Vpr as yeast two-hybrid fusion (LexA-Vpr bait and B42-Vpr prey) (from UniProt P05928 1-96) (natural protein)” displayed a fold weaker than dimerization of wild-type Vpr (β-galactosidase activity) of 3 fold.
